This note sets out measurements from the DeepSol protein solubility set.

A short description of this data set: soluble on expression in E. coli; label from the status in PepcDB or PDB records.
Regarding “MSLSEFLTKNEEKIEKIVKFHRSFDEMSQTQRQAWLEEMGDINIEHFFKANQRVFDEDGPRERSIPRRDFFLDVIKNRVKSDPLLQPKGHPVTNYLQENIHIRKLCEKITDTFCVEEIASYDAALNLLYELSKIHTHYLRKEDQLFPYLEKHNFTYPSTGMWKFQDEIRANLKMVIKAFEKNELNKEMQTLMRDVVKDIFDMTTREEKMLLPTSVKLLSNEEWIKMRKEEQEIGYVFIQSPPMWPEDESHKPDMASSLGSIFLQEGSLSQEQLNLFFSHLPFDVTFVDENDRVAFFNKGSERTFLRSAGVIGREVKFCHPPKSVDAVLKILEAFKAGTKESAEFWITFGGRLIHIRYFALRDSEKNYKGVVEITQDITDIKNIEGERRLLDWEEGHHHHHH”, the “soluble on expression in E. coli” value is reported as “soluble”.

Regarding “MSLSEIDQVSYNFHIRPILSDKCFACHGPDANKREADLRLDTEEGAFKALKESPGKFALVSGKPEESELFHRITSEDPGELMPPTESNLVLSDTEIGLIKKWIEQGAEYEPHWAFTKAEKPELPSENEWAVNEIDRFVYQKMVEKGLEPNPKADPQELIKRASLDITGLPPSPEILDQYSDLSNDAYQNLLDGLLADPSFGEKLGVLWMDISRYADSYGYQDDNIRSQWPYRDWVIHAFNENMPYDQFITYQLAGDLLPNATKEQILATAFNRNHKYTEEGGVIDEEYRIEYVLDKTNTFSKGVLGITMECAQCHDHKYDPFSQKDYYELFAFFNNTPEKGYEGDVSVSKPAKTPILWVDQEGHHHHHH”, the “soluble on expression in E. coli” value was “soluble”.

Take “MSLSFELNPIFKRPSVSRELTKRFFFSANNGTRIILFQDSTIRWSFSSDNDHYQSMALRDSDMDVTGAIISDPGDYLCLYNSHQIRVIEIPWGLTNVDEISNSMASSLQERVYNFNEDKLSVKQVLFHPLSKSSPFLVVLFSGSQIAFVDLKNVFKSSDIPIDCFLNLTDSNVMGIDNRVENIQYVVFADDCLSLYSLTDTDVYCFYPCLPPVASLSKNRVDELINKSIVLYENLGIDADDIVRKNVIKQLQLASSLRKKIEEFENANGEVEVNVEIDLEFRQTKAQGYFSISPYPESLYTCTGKQISVLPIGEGNELFLVSFDNGTVLVVFKDKESTMSWDVNDYSFNNSFTLVEIIKFKPEELSNMVVLQGELGKFVVSGEKSTILVDTTKWSSVISKCIRDNDLRPLVGLEMKSTITHINSDMQINSCGIWNSGEAKSLLLVDTNVVVGYQLFKKEVEFKPESAEEISTELENFTLDKFTVPENELKAANYKFQEAVSVPYSKVIPANIKQVPFGSNAMEEQLKILNDISRDVGSKIVQGQSLGLMLYDRLLEQQDKLSEQLIITNKILIRAKKVQGDYPAQLSKLDEKLKKQEHLEKILLKMESNLNTIQESQKLKSLPLSEKEIQLFKELRSQILLFNNFVHKQKDQKQNIQFLKKELQKIIDISRSESSKGMLNEWEELRQILADDAKIIKECNEQLTQISKELDTKNTVTNSEGHHHHHH”: the “soluble on expression in E. coli” value was “soluble”.

On to “MSLSHLVVFDLDGTLTRQRGGFELLHTLYGTTPEAETLMNRFEAGEITFTEWCQGAVDMWRANDITRSDITRATRALKPKAGAVDLLAHLQQTDIRFGILSAGVANLAARFEPYEPAFVRGNWLQFEDRRVSAIDIGVGPNEKGELLRKIRSKQNPVSITYIGDSHTDTEAFIEADTAVLFDPDERVPETAIDAADTIIESADIAEVQNCIPTEGHHHHHH”, for which the “soluble on expression in E. coli” value is listed as “not soluble”.

As for “MSLSIADNLKQVLAELPQGVRLVAVSKFHPNEAIEEAYQAGQRIFGESKVQEMTAKYETLPKDIEWHFIGHLQTNKIKYMIPYVEMIHGIDTYKLLAEVNKQAAKAGRIVNCLIQIHVAQEETKFGFSPEECKDMLHAGEWKELSHIRICGLMGMASNTDDVEQINREFCLLNRLFQEIKANWFADSDTFRELSMGMSHDYHEAIAAGSTLVRVGSKIFGERNYNTEGHHHHHH”, the “soluble on expression in E. coli” value is “soluble”.

With “MSLSINSETLVNHMNHEIAAIQPSDILAFNAEIANIPGIVRLTLGEPDFNTPEHVKQAAIESIEADESHYAPSNGTLALRTAAAEFLAAKYDVHYDPASEVIITAGATGGIYTALTSILNPGDEVLIPTPIFPLYIAIVKLSGATPVFMDTSDNGFVLSPDQLQTTLAAHPKTKAVVLNFPSNPTGVTYRHDDLKALAAVLADQPIFVLSDEIYSELTYGEPHESIANYLPTQTILLNGVSKSHAMTGWRIGIMCAPKAITAQLGKIHQFTVTSTTTNAQAAAAGLKQLTSRTAGVDTIDIPAAKAAGLVVTNVEGHHHHHH”, the “soluble on expression in E. coli” value is recorded as “not soluble”.

In the case of “MSLSIPLILASQSRPRRDVLFSAGICPTIRVSHVDEPAALEREAAALGVTVNDLSVEQRVMILATAKAEAVHQAYRNIADTAAHARGERVVGFPLRAADDRDASSAGTAARTDSAQSADETKTRDFSGIAIPTVAEPIADFVDGRPSLTRSKAGPLILGCDSMFLLDGECYGKPHSEEVARERLRAMRGATGELWTGHCLIDFASGRMVRGASKATLHFCEYSDLDIERYIATGEPLEVAGSFTLEGFGGAFIDSIEGDPHGIIGLSLPLARRLAAQLGVEWTDLWNVTRSDLAPDAEYDAKTGAAKPLPPKENVHQPGDGWVDCACGRKHWGTNGASGVLLARRSETTGEVTHVVMQHRAVWSAEGGTWGIPGGATADGESPIEGALRESYEEANITPEDIDVVGSYCEDHGPWSYTTVFAFEKPGHRIEPKANDDESMEIEWVPVDDVPNRKLLTAMRTDWPNFAARLRALAAVREGHHHHHH”, the “soluble on expression in E. coli” value is given as “soluble”.

Consider “MSLSISEKPLSELLRPKDFEDFVGQDHIFGNKGILRRTLKTGNMFSSILYGPPGSGKTSVFSLLKRYFNGEVVYLSSTVHGVSEIKNVLKRGEQLRKYGKKLLLFLDEIHRLNKNQQMVLVSHVERGDIVLVATTTENPSFVIVPALLSRCRILYFKKLSDEDLMKILKKATEVLNIDLEESVEKAIVRHSEGDARKLLNTLEIVHQAFKNKRVTLEDLETLLGNVSGYTKESHYDFASAFIKSMRGSDPNAAVYYLVKMIEMGEDPRFIARRMIIFASEDVGLADPNALHIAVSTSIAVEHVGLPECLMNLVECAVYLSLAPKSNSVYLAMKEGHHHHHH”, for which the “soluble on expression in E. coli” value is “not soluble”.

Turning to “MSLSKHHIIVKSGSTLEQLAKAKTFAFDKTGTLTQNQLVIQDVLPENGFDKETIQSYAASLEQQSDHIIANSLVQGTDKNLIQAVSNLQESTGNGVSGTVDGKNVMVGKLSYVAPDANVNKAKTTAVYVSVDGKYAGCITFKDRLRPETPQTLARLRKQGAKHIMMLTGDNKDVAQAIADVAGVDDVRASLLPAQKIEAIKNVAPENRPVVMTGDGINDAPSLTAADVGIAMGAKGASAASESADAVIMVNDLSKINDAVAIAKHTMKVAEGHHHHHH”, the “soluble on expression in E. coli” value is recorded as “soluble”.

As for “MSLSLEERERAVELYFTTPMTTAQVVEHLGYPTRQCLERWLAMDSRYAGHMAKPIIPLETRRRAVELVLGGMQQKQAAKQLGVSVGAVHGWVRAYRKGGMAALQPKNRNSAQGNKPADSRRRPSAADDDDAEALRRRVEELELENALMREVVEVVKKDPGADLRRLSNREKTLLIDRLRPAYSLRSMTCLLAIAPSSYHYHHARLGVDKYAGLRAEVAGAFADSKGRYGYRRIKAVLKTGVSEKVVRRIMAEEGLVAHVPKRRRYSSYEGETTPAPANLVDRDFTAERPNEKWLTDISEIKARDGKVYLSPMIDCFDGKIVAYTAGFSPNAELANRMLEKAASTLPGNARPLVHSDRGCHYRWPGWLGLMERFGLTRSMSAKGCSPDNAAAEGFFGRMKTESVYPEHWEKRTRDEVLILIDDYIRWYNHERIKRSLGWMSPVQYRQSQGMAEGHHHHHH”, the “soluble on expression in E. coli” value is given as “not soluble”.

In the case of “MSLSLSLEVLERLVAFETVSDRPNLDMIAYVEDFLRTRGFRVHRIADPEEAKAGLFAEIGPSVDGGLLLSAHSDVVPVEGQSWCVPPFKLTRQGDKLYGRGTTDMKGFLAEMLALADVVHRRDLHAPLKLLISYDEEIGCVGISRMKDRLRPLLGRPELAIVGEPTEMQVAISHKGKRSYRADFRGEAGHSALAPRFVNALHLAVDFVTKLRQMQDEFRQDGNFNGDYDVPYTTLHVGQLHGGEALNLVPDKATLLFEFRHLAEDDPEVIEARIQQAADAVKGNYADVAHISLDALAGYPGLSVAVSEPLVSRVRSWCDGNISHVAFGTEAGVLSELGIQTVVCGPGSMAEQGHKPDEFISEHQLAACSNMLRKGAEEMLYCAEGHHHHHH”, the “soluble on expression in E. coli” value is “soluble”.

Consider “MSLSMKSELRKQVLHEMKAISQEQKQAIDQALTERLLHHPFYQEAKVIATYLSFSHEFQTRELIEQALKDGKKVLIPKTYPKGRMEFVAYDPQQLVKTSFALLEPQGDVEVVDASQIDLIHVPGLAFTTKGYRIGYGGGYYDRYLEHFSGRTLSTIYPCQIQDFIPEEGHHHHHH”, for which the “soluble on expression in E. coli” value is “not soluble”.

As for “MSLSMLEKVSFSTTPDFELGFEHCPRQTDYLIAQPKERAKGLVVYIPGFGDDAGEYREKFCLKVAEKYDLAAMTVDYHCFYSRPEVHSATAYEAEDVALIEKLFLAHNLPFAGDTIEEGIEILNKHLASHNQKASITATLIPGKDEYQNAGVLQALDIINAVGHAIEKYSIPAENVILIGSSYGGYIANLATKFAPKTFRAVFDNSSWAQPHFTYIVGREYGYPELIHKTHSHIATKLFLRTAWTLKKGLPNTFDGKRFYVRTFSEDQLGQFSSYEPETYYYFIHAEKDKLALTEHKIQMATYMIQREMNVHMEVMEAADIDGQYIKTIEHGMNLSMLTFFDKAYAHINDHTISLENDFMNGSLVGYDSGDHRYEFDFSTFPVTGRVTQKAVAEGHHHHHH”, the “soluble on expression in E. coli” value was “soluble”.

Take “MSLSNAVAQDLMTIADIVEATTTAPIPFHITAFDGSFTGPEDAPYQLFVANTDAVSYIATAPGDLGLARAYLMGDLIVEGEHPGHPYGIFDALKEFYRCFKRPDASTTLQIMWTLRKMNALKFQEIPPMEQAPAWRKALINGLASRHSKSRDKKAISYHYDVGNEFYSLFLDDSMTYTCAYYPTPESSLEEAQENKYRLIFEKLRLKEGDRLLDVGCGWGGMVRYAAKHGVKAIGVTLSEQQYEWGQAEIKRQGLEDLAEIRFMDYRDVPETGFDAISAIGIIEHIGVNNYPDYFELLSSKLKTGGLMLNHSITYPDNRPRHAGAFIDRYIFPDGELTGSGTLIKHMQDNGFEVLHEENLRFDYQRTLHAWCENLKENWEEAVELAGEPTARLFGLYMAGSEWGFAHNIVQLHQVLGVKLDEQGSRGEVPERMWWTEGHHHHHH”: the “soluble on expression in E. coli” value is reported as “soluble”.

With “MSLSNDYPLVSIIIPTYNSSDYITETLTKLEKQTYPNFEIVIVNDGSKDNTSSVLREYGLTHSRLIIINKENGGVSSARNTGIRKAQGQFICFMDDDDEIDPNYLLKMYSRQHETGGDAIYCGLYGHHIKNGVTYSPINTDFNEGSLLFDFFYKKVRFHIGCLFIRKQLLEDNNLFFDEDLRLGEDLDFIYRLLITCDMYAVPYYMYKHNYRENSLMNSCRTITHYRHESFAHERIYSSVMQLYKGNRKEEIHTLLSKNRTYHKTRYLWNVLLNGDFELLNQLVESNEKELKDCNLLGKRDKRRAKILASKNYILWRMVRLVNRKKNKEGHHHHHH”, the “soluble on expression in E. coli” value was “soluble”.

For “MSLSPAPTTMDFTPAPLEDTSSRPQFCKWPCECPPSPPRCPLGVSLITDGCECCKMCAQQLGDNCTEAAICDPHRGLYCDYSGDRPRYAIGVCAQVVGVGCVLDGVRYNNGQSFQPNCKYNCTCIDGAVGCTPLCLRVRPPRLWCPHPRRVSIPGHCCEQWVCEDDAKRPRKTAPRDTGAFDAVGEVEAWHRNCIAYTSPWSPCSTSCGLGVSTRISNVNAQCWPEQESRLCNLRPCDVDIHTLIKAGKKCLAVYQPEASMNFTLAGCISTRSYQPKYCGVCMDNRCCIPYKSKTIDVSFQCPDGLGFSRQVLWINACFCNLSCRNPNDIFADLESYPDFSEIANEGHHHHHH”, the “soluble on expression in E. coli” value is “not soluble”.

As to “MSLSPGKKRAMINRDHPKLSISQQCKLVSLSRSAFYYTPAGIDADTLSMMKEIDRVFTKYPFFGSRQIAAYLRREGIVVGRHRVRRLMAKMGLEAVYKRPRTSQPHPQHPVFPYLLRKMVIDRPNQVWCADITFVPVRNGFLYLVAIMDWATRKVLSWRLSNTMHADFCVEALSEAIARYGPPEIMNTDQGSQFTGSAWITTLTEAGVRISMDGRGRYLDNIFIERLWRSLKQEAIYLEEINEGFRARRVIKGWMAFYNTSRPHSALDRQTPDDAYWAGLEERHAAEGHHHHHH”, the “soluble on expression in E. coli” value was “not soluble”.
